Laboratory results reported in paper PMC5264599.

B1: wild type p16-GFP [not stated] / CDK4 (Cyclin-dependent protein kinase), endogenous in 293T cells [human (endogenous in 293T)] (parent)
chain 1: MEPAAGSSMEPSADWLATAAARGRVEEVRALLEAGALPNAPNSYGRRPIQVMMMGSARVAELLLLHGAEPNCADPATLTRPVHDAAREGFLDTLVVLHRAGARLDVRDAWGRLPVDLAEELGHRDVARYLRAAAGGTRGSNHARIDAAEGPSDIPD
chain 2: MATSRYEPVAEIGVGAYGTVYKARDPHSGHFVALKSVRVPNGGGGGGGLPISTVREVALLRRLEAFEHPNVVRLMDVCATSRTDREIKVTLVFEHVDQDLRTYLDKAPPPGLPAETIKDLMRQFLRGLDFLHANCIVHRDLKPENILVTSGGTVKLADFGLARIYSYQMALTPVVVTLWYRAPEVLLQSTYATPVDMWSVGCIFAEMFRRKPLFCGNSEADQLGKIFDLIGLPPEDDWPRDVSLPRGAFPPRGPRPVQSVVPEMEESGAQLLLEMLTFNPHKRISAFRALQHSYLHKDEGNPE

Variants of: B1
Assay: co-immunoprecipitation (anti-GFP IP, anti-CDK4 immunoblot, photodensitometry)
Details: with CDK4 (Cyclin-dependent protein kinase), scale: relative intensity
[1] = 1 mM H2O2 for 24 h, read off a plot

Row | response [1] | response (no H2O2, read off a plot) | Variant
1 | 0.92 | 0.85 | chain 1 S140A
2 | 1.4 | 0.92 | chain 1 S8A
3 | 1.7 | 1.1 | chain 1 S152A
